Experimental data taken from paper PMC6323126.

B1: FHA domain (residues 5–135) of SLMAP [human] / MST2 kinase domain (residues 1–308) [human] (parent)
chain 1: LAIFTCRPNSHPFQERHVYLDEPIKIGRSVARCRPAQNNATFDCKVLSRNHALVWFDHKTGKFYLQDTKSSNGTFINSQRLSRGSEESPPCEILSGDIIQFGVDVTENTRKVTHGCIVSTIKLFLPDGMEA
chain 2: MEQPPAPKSKLKKLSEDSLTKQPEEVFDVLEKLGEGSYGSVFKAIHKESGQVVAIKQVPVESDLQEIIKEISIMQQCDSPYVVKYYGSYFKNTDLWIVMEYCGAGSVSDIIRLRNKTLIEDEIATILKSTLKGLEYLHFMRKIHRDIKAGNILLNTEGHAKLADFGVAGQLTDTMAKRNTVIGTPFWMAPEVIQEIGYNCVADIWSLGITSIEMAEGKPPYADIHPMRAIFMIPTNPPPTFRKPELWSDDFTDFVKKCLVKNPEQRATATQLLQHPFIKNAKPVSILRDLITEAMEIKAKRHEEQQRE

Variants of: B1
Assay: BLI
Conditions: with MST2 kinase domain (residues 1–308) [human]; read at the end of association (about 360 s); parent: 2.1; read off a plot

| response | Variant |
| --- | --- |
| 0.57 nm | chain 1 LAIFTCRPNSHPFQERHVYLDEPIKIGRSVARCRPAQNNATFDCKVLSANHALVWFDHKTGKFYLQDTKSSNGTFINSQRLSRGSEESPPCEILSGDIIQFGVDVTENTRKVTHGCIVSTIKLFLPDGMEA [chain 1 R49A] |
